This note sets out measurements from article doi:10.1101/2020.06.07.137802 (bioRxiv, 2020).

*: point of attachment. Biotin = O=C1N[C@H]2[C@H](CS[C@H]2CCCCC(=O)*)N1; Ahx = NCCCCCC(=O)O

In this assay the target is T1, recombinant, soluble extracellular b1b2 domain of human NRP1, wild type (residues 274-584) (human, UniProt O14786 274-584).
T1 sequence: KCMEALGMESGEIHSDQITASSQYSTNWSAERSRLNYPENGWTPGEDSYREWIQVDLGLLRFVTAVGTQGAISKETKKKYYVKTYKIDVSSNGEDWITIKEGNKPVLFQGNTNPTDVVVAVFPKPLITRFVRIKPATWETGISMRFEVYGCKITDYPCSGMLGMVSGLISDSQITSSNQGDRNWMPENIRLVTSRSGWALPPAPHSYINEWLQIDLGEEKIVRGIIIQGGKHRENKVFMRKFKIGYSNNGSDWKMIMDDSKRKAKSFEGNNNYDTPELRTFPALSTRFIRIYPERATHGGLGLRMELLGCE

Turning to {Biotin-Ahx}-RPARPAR-OH (also: on silver nanoparticles) [biotin-Ahx-RPARPAR-OH, prototypic NRP1-binding CendR peptide, on silver nanoparticles (AgNP-CendR)], the binding result is recorded as “binds”.
